Data on two molecules can be found in patent publication US20170226511, “[…] FOR BINDING […] PROTEINS” (National University of Singapore, published 2017).

This data set has as its target West Nile virus envelope protein domain III (WNDIII, WNE-rDIII) (West Nile virus strain Wengler, UniProt P06935 P06935:582-692). The data set is described as follows: ELONA; unmodified DNA unable to bind. The conditions noted are these: tags: 6xHis; with or without biotin acceptor peptide (BAP); label: 5' biotin.

Sequence of West Nile virus envelope protein domain III (WNDIII, WNE-rDIII) (P06935 582-692, one chain of several): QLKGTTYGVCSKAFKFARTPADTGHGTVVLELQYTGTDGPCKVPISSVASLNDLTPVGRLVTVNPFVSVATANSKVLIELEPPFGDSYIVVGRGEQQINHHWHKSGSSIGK

B1: BN-B99-DNA unmodified (ssDNA)
DNA: GAAGGTGAAGGTCGGCTGAAGCATCAGACCTAAGCCCAAATTGCCGCAGACTCGTTGTGAAGCTTAGGTCTAATGCACCATCATCACCATCTTC
As to B1, the binding result was “no binding”.

B2: BN-B03-DNA unmodified (ssDNA)
DNA: GAAGGTGAAGGTCGGCTGAAGCATTAGACCTAAGCACGCTGCCACAAGTCCTGGTTCCCTGGCTTAGGTCTAATGCACCATCATCACCATCTTC
Consider B2, for which the binding result is listed as “no binding”.
